Legend:
Experiment in all cases: flow, Jurkat, 100 nM Ab
[1] = target: T1, Human Clec5A (human, UniProt Q9NY25 1-188)
T1 construct: also called hClec5A
T1 sequence: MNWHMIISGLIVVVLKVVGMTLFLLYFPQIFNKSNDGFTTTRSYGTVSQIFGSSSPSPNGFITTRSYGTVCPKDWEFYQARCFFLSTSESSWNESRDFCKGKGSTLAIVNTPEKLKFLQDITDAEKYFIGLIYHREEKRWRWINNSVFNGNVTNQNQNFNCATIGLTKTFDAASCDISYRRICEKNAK

[2] = target: T2, Human OLR1 (human, UniProt P78380 1-273)
T2 construct: also called hOLR1

[3] = target: T3, Human Clec7A (human, UniProt Q9BXN2 1-247)
T3 construct: also called hClec7A
T3 sequence: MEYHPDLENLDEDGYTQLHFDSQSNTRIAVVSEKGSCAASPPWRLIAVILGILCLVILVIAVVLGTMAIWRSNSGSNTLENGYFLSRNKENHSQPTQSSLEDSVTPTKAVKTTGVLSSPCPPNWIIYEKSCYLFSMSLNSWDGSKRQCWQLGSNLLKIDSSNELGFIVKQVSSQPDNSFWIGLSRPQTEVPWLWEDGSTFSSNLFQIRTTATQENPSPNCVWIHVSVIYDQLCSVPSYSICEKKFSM

[4] = target: T4, Human KLRF2 (human, UniProt D3W0D1 1-207)
T4 construct: also called hKLRF2
T4 sequence: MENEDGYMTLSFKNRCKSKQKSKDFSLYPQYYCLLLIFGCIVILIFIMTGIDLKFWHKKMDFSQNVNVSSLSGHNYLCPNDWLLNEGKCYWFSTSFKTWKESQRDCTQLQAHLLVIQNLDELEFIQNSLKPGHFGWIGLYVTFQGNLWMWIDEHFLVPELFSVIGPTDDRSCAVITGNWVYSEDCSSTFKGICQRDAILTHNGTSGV

[5] = target: T5, Human CD94 (human, UniProt Q13241 1-179)
T5 construct: also called hCD94
T5 sequence: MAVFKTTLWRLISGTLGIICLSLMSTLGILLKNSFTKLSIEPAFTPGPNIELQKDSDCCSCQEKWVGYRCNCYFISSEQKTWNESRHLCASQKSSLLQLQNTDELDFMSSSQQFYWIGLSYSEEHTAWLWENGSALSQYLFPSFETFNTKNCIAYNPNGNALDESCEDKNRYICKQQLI

[6] = target: T6, human CD161 (human, UniProt Q12918 1-225)
T6 construct: UniProt Q12918; also called hCD161; KLRB1

[7] = target: T7, Human Clec10A (human, UniProt Q8IUN9 1-316)
T7 construct: also called hClec10A
T7 sequence: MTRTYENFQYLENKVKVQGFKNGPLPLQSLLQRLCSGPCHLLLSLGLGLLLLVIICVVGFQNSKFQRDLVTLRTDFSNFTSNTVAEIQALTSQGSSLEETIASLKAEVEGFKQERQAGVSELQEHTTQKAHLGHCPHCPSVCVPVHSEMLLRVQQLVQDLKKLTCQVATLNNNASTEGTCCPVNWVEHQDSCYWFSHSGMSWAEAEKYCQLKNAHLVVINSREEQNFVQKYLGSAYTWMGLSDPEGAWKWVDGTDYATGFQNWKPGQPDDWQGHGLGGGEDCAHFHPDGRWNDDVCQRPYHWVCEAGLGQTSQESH

[8] = target: T8, cynomolgus CD161 (cynomolgus)
T8 construct: UniProt A0A2K5WYI1; also called cynoCD161
T8 chain: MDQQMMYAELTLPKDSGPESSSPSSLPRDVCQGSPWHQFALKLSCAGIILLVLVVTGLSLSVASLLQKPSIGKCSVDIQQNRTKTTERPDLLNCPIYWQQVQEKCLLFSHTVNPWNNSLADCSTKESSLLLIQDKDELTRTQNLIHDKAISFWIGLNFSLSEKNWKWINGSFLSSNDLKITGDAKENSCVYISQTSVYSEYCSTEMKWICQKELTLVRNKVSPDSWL

[9] = target: T9, Human Clec4E (human, UniProt Q9ULY5 1-219)
T9 construct: also called hClec4E
T9 sequence: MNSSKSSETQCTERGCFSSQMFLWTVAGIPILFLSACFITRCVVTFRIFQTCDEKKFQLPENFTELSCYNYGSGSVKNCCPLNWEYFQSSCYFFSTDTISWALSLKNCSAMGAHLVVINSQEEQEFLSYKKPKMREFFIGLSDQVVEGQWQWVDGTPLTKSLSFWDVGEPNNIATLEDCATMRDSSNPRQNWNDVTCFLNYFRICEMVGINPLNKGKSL

[10] = target: T10, Human Clec12B (human, UniProt Q2HXU8 1-276)
T10 construct: also called hClec12B
T10 sequence: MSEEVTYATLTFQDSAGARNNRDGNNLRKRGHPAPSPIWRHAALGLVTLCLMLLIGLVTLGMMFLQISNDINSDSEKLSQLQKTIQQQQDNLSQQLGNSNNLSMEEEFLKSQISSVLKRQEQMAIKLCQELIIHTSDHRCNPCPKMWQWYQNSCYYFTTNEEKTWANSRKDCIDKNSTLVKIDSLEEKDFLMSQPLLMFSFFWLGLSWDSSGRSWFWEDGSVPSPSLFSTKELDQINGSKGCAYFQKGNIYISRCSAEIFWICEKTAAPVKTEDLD

- MFI normalized to WT [1]: 1.04
- MFI normalized to WT [2]: 0.98
- MFI normalized to WT [3]: 1.13
- MFI normalized to WT [4]: 1.01
- MFI normalized to WT [5]: 0.95
- MFI normalized to WT [6]: 53.9
- MFI normalized to WT [7]: 0.96
- MFI normalized to WT [8]: 0.98
- MFI normalized to WT [9]: 0.94
- MFI normalized to WT [10]: 1.04
B1: anti-CD161 KW17 (antibody, V domains shown)
VH: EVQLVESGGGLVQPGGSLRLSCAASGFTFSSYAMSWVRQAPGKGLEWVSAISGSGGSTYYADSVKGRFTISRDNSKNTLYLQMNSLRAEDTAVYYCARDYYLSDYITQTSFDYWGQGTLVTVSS
VL: QSVLTQPPSVSGAPGQRVTISCTGSSSNIGAGYDVHWYQQLPGTAPKLLIYGNSNRPSGVPDRFSGSKSGTSASLAITGLQAEDEADYYCQSYDSSHTVFGGGTQLTVL
notes: Human, lambda light chain; scFv-Fc or full IgG not clear; also called KW17-Fc
